Experiment: soluble on expression in E. coli; label from the status in PepcDB or PDB records

Sequence	soluble on expression in E. coli
MGSDKIHHHHHHMIKRAVEIVRQRGVGVLIKKIPPYIYQQVWPYLPSAGYTYKNGIKSCERGRVLDQFLPKYITQYATHQPSYESQYIEAIRRHVTEGQDVVLVGGGEGISTVVAANQVQRTGEVTVFEGAAEEARKSQVVVEINEVSDRTTVHHTIVSEDVSLRSAASGAEVLPSAELPSCDVLAIDADGAEISILDGIVNHPAVLIVEHHAVADTSGLALEYQPDRVRDLITNLGYDIVDEMSDPAGAGGGRFEERIYVGKRLAVEPSDLM	not soluble
MPVLTSGQQERKSKQRKIRNSEYYDMEGTFDRLYAESKKDKTFNHLMEIIESEENIKLAYRTIKKNTGSDTSGVDKRTIADLAKLSEEEYVRLIRKQFSNYHPGPVRRVEIPKPNGKTRPLGIPTIVDRIVQQCILQVMEPICEAKFSENSNGFRPNRSAETAIAQCMRLIQVQHLYHVVDLDIKGFFDNISHTKLIRQIWALGIRDKKLLCIIKEMLKAPVVLPNGEKTYPARGTPQGGILSPLLANIVLNELDWWIASQWEEMPTKTKFKTRSNAQGTEIKSHAYRALRRSRLKEMHAVRYADDFKIFCATHEDAVRAYKATELWLKDRLGLEISPDKSKVVNLKRQYSDFLGFKLKVRKKGKKYVVRSHMSDKAYKKAHEKVSEEVKKLAYSSDDNAQFMQLQKYNSVVAGLHEYYCISTEVSHDFSRLAFSINKQLRNRLKGDLSKKGQLRNGFIKEKYGASRQMRFLHGRPVVPLGYVQSKNAQHKRKSINKYTVKGREQIHKNLAIDTATMLWLMRNPVKGRTIEYADNRISLYAAQYGKCAVTGIPMNSHDIHCHHKVPVSNGGSDEYANLILVSKAVHILIHASSEPTIEKYLKSLNLDNKQIEKLNKLRSMAEMPPIIL	not soluble
MFYAQFVLAKKGPLAKVWLAAHWEKKLTKAQIFETDVPQAIEEVIRPKVKMALRTVGHLLLGIVRIYSKKTRYLLADTNEAYQKMKINFRNGFSFEVDIPENAEIEEDFSNFIDKYNITVPEFHDADYNEQLIMANVSRREDITMKETVNFNVEFNIDADFDGFGDEGESWQLDHLYGSVEPLSLRPTPQPESLMEVERDRDVAANGTEISRIDADSVIFSEGPTRPNLIFDNQEGGNFMPEMNLKVENQTLENDGGVGPADMFSSMIHPVREHAVADVQNDDGMDFDYQPFEPENVEPSRPQSPESFALEPLDVEHMEGRKKRQRKARKLIVDAETMISNDAFREQQEDFSDTMRVVEMAPPTRKMFNLCVSGDLQHLSREPGCKMFNRELLQRYRRCLVTREFDLNYTMQELSDSSSFTPSMEAQAEPWEDLNLNEDIQEDIQAQGPAVDEFFNDVRMDDDDDRQPAQEMDFGDNFDFPQEVEHQECAPIPIQSGFAGENKENEDAEDWSDPFGSSNSSRRGQLEAYGFGNTSTYKEDDGKWAKRAKHILKKVSADIETSGQADFSSVTATAKNRKQAAEQFYSLLTLAKSQAISVDQSEPYGEIVIRPGANFKEACPLSSPKPMGLGNTMENSTMRTPMRPV	not soluble
MSPESSNQTTSLSSFLLKCAFPDGTVPINIAPQSLSLSSSPGSYDGDQFSPLMKQHKSRKYDSCTISDDLHDEMKRLKKKEEAFKTALCGFQRRGQKCIYGEQCKFAHSVHELRFTQAKKTHRNYKTVLCDKFSTTGYCKYGARCQFIHRALGSTSTTESAEMADFKLNVESDLSRAFALDYTSFLPNWHCSALLH	not soluble
MGSDKIHHHHHHMLNKLCMYLERPELYKQSEINFWDDEYISKQLLKAHLDTNFEGASRNFNFIEDSVNWIVTVANPANYPKLLDLGCGPGLYAEKFAQKGYKVTGIDFSKRSINYAQNRNKETNLNINYLFQSYLNMNYNEEFDLATLIYCDYGALSTENRRLLMEKIYDSLKPGGKLILDVFTINKYNNFEEIKYWEINEDGGFWSNEKYMCLQDNCKYNDYNTLEQTLVITEKDENVFYVWNHYFSKESFLLEVENIGFKSVEFFSNVKGEAYSDDSMTMGLVLQK	not soluble
MGERADTFLAHFNRIEKWMRERLNNPVNMGFSEMTRRLSRKEKGQIAQFEEDLLQMAQLRNAIVHERIADDFVIAEPNEWAVQRIETIEQALTKPEKVVPKFAKRVTAFEITTSLETLLTIIAKKQYSQFPIYEKGVFKGLITVRGIGVWFAIESTKGEVHIANRTVRELLASNYKRSNYQFVSIEATVFEVEQMFREQPRLEAVLISKSGHPNGELVGIVRPRDLASIHREKE	not soluble
MSLYKIDFSKGLVPAILQDNQTKQVLMLGYMNQEAFDKTIEDGVVCFYSRSKQRLWTKGETSGHTQLVKDIHVDCDNDTILIDVIPNGPTCHTGSQSCFNTEVPFSVQTLAQTVQDSAQSNNEKSYTKYLLTEGIEKITKKYGEEAFEVVIEAIKGDKKAFVSEVADELYHLFVLMHALGVDFSEIEAELARRHHKRNNFKGERQNIEQWEGHHHHHH	soluble
MGNCLSTSDPSHEDVSKKLPKALPVDAAFKFPSPLPTFTRGDGFAKGTIDLGGGLEVSQVSTFNKVWSTYEGGPDNLGATFFEPSSIPSGFSILGYYAQPNNRNLFGWVLTARDLSSNTLKPPVDYTLVGNTESLKIKQDGTGYFWQPVPPDGYQAVGLIVTNYSQKPPLDKLRCIRSDLTEQCEADTWIWGTNGVNISNLKPTTRGTQATGVYVGTFTWQTQNSSPPSLSCLKNTKLDFSTMPNGSQIEELFQTFSPCIYFHPDEEYLPSSVTWYFNNGALLYKKGEESKPIPIESNGSNLPQGGSNDGSYWLDLPIDKNGKERVKKGDLQSTKVYLHIKPMLGATFTDISIWIFYPFNGPAKAKVKFVNLPLGRIGEHIGDWEHTTLRISNFTGELWRVFLSQHSGGIWIDACDLEFQDGGNNKFVAYASLHGHAMYPKPGLVLQGDDGVGIRNDTGKGKKVLDTGLGYEVIAAEYDGGGVVEPPWVKYFRKWGPKIDYNVDDEVKSVERILPGLLKKAFVKFVKKIPDEVYGEDGPTGPKLKSNWAGDES	not soluble
MNRILSMIEQMEPGVVIFNDDLTISSVSSMVFMIFGHIPRERIFAGDLLDIHDEAAREKVKETLRLARQAQRHIPLSLKFITSEGHDRYLLVKLITVAERDPASEKICALFYDITPFIVAERKLTRVPVTSRGDIHLLRPEEIVYLKADNIYSLIYTEAGEFHSDLSLGAMEKRLSEDIFYRIHRSYLVNLAKVRKVHRESSECTVAAGGGEVRLPVSRDKMQRFLTDLGLK	not soluble
MVPPKLKQALELFKSLPKELRSQVLLEYAAKVPPPPPGVELERVHECQTPFFVHADVEGGKVRLYFHVPDEAPTVKAFAGLLREGLEGESPEAVLEVPPGFYRGYGLEEFFTPLRLRGLEAALLRLQAQVRKALTS	soluble
MDGFDASPKAIAARRAKVFDPVGGYEYFVNTYFPHYIRSPEKSELHAFLFSRLPEIIRSPKGENEAVGAPRGEGKSTKVTQLFTLWCIVTGQKHYAVIVMDSIDQAYPMLEAIKAELEFNPRLKTDFPEVCGQGRVWQAGTIVTANDVKVQVAGSGKKLRGLRHGPYRPDLTVLDDIENDEQVRNPEQRDKLNAWLTKTVLPLGGVGQKYDVIYIGTILHYDSVLNRTLNNPFWHGIKFKAMKRWPDRMDLWDRWEELFRNDGETVAEAFYQANKDEMERGAVTSWAARGVLALMKIRARDGHATFDSEYQNDPVSGEDAPFAKSMKFWNDLPSDLVYFGALDPSLGKAGASRDPSAIIIGGYQRVTGKLYVVEAQIKKRLPDLIIEDVIRLHRQYRCKLWFVETVQFQEFLKDELVKRSAARGIPVPARAVKPVSDKLLRIETLQPHMANGLILLNESQQTLIQQFRHFPKADHDDGPDAVHMLWSGAVANCVPIEWQSPTDNDFDDEIKSKWSR	not soluble
MSLHGNSEMQKINQTSAMPEKTDVHWSGRFSVAPMLDWTDRHCRYFLRLLSRNTLLYTEMVTTGAIIHGKGDYLAYSEEEHPVALQLGGSDPAALAQCAKLAEARGYDEINLNVGCPSDRVQNGMFGACLMGNAQLVADCVKAMRDVVSIPVTVKTRIGIDDQDSYEFLCDFINTVSGKGECEMFIIHARKAWLSGLSPKENREIPPLDYPRVYQLKRDFPHLTMSINGGIKSLEEAKAHLQHMDGVMVGREAYQNPGILAAVDREIFGSSDTDADPVAVVRAMYPYIERELSQGTYLGHITRHMLGLFQGIPGARQWRRYLSENAHKAGADINVLEHALKLVADKREGHHHHHH	soluble
MEKSVNVIGAGLAGSEAAWQLVKRGVKVDLYEMRPVKQTPAHHTDKFAELVCTNSLRANGLTNAVGVIKEEMRLLDSIIIESADKASVPAGGALAVDRHEFSGYITDKVKNHPLVTIHTEEVTSIPEGPTIIATGPLTSPALAEEIKRLTGEEYLYFYDAAAPIIEKDSIDMDKVYLKSRYDKGEAAYLNCPMSEEEFNTFYEALVTAETAALKEFEKEVFFEGCMPIEVMAKRGIKTMLFGPLKPVGLEDPKTGKRPYAVLQLRQDDAAGTLYNMVGFQTHLKWGEQKRVFGLIPGLENAEIVRYGVMHRNTFINSPTVLEPTYQLKTRNDLFFAGQMTGVEGYVESAASGLAAGINAANFVQDKEPIVFPPESAIGSLANYITSASKKSFQPMNVNFGLFPELPTKIRAKQERNEKLAERALDAIKKVAEQLLEHHHHHH	soluble
MREGWRDEPAARGGCQCGRVRYSVPAGPKKSTVCHCRMCQRATGNAFAPLLEVPTADVVWEGTPAVWASSSVAERGFCATCGTPLFYRSDETTELMAGTLAGFDFRPIANHGIEGRVGWLGGLAALPDRATRPELLSRVVSHQAPDE	not soluble
MGSDKIHHHHHHMTENFWRELPRPFFVLAPMEDVTDVVFRHVVSEAGRPDVFFTEFTNSESYCHPDGKDSVRGRLTFTEDEQPIVAHIWGDKPENFRKMSIGMAELGFKGLDINMGCPVPNVAGNGKGSGLICRPAVAAELIQAAKAGGLPVSVKTRLGYTDVDEWREWLTHILKQDIANLSIHLRTRAEMSKVDAHWELIPEIKKLRDEVAPDTLLTINGDIPDRQTGLKLAEQYGVDGIMIGRGIFTNPFAFEKEPKEHSSKELLDLLRLHLDLHDEYSKEEARPYKPLPRFFKIYLRGFRGASELRNQCMNTKSTDEVRALLDDFERKYLDGIE	not soluble
MAHHHHHHMDSTYKEPSSAAVPTSYAVLSLPSKATMRRKGYNPDEVNYNGGLATHPLATWKTFSLPDGCTYKDAVSAVQTANAKPWGPIKIRLNFSDGRYEQFERVAPSVMDSLQSTTTYSPNDAFKAETLSLSTMRRAQQQPRLRPLVDERGHHLSNKPIPRTFAPEELYKNCPPPVLSQPGYDFTPISYNTFLLNPQDPPHGVRNVQSNFMHSSCDYRPRSYLRPEQATGTSHASRHCHCNEVFQVGDHTMDFACEGTTVDHRNRLVKKDYSPVGTLKANSSIVGRRHARKPRFGCTGVADSQTVAAAVAPAADEETA	soluble
MGSDKIHHHHHHMSSIFSLEGIKALGPDELREIQRGGLPVVIHFGDAGDDFLAYVSDHATEWLGTDAIRTVDARRFMEDKEWKAPMLTSEVLPKTIIVDPARWGDSFADKVAALDMTAFYSSNPVLLDYNDAFEVVFLFSTFYHHTMVSVTDFCNLRCRGCSFHGDDSRYDFAASRGKTERQELKEEDYYLFLDQRKPGDDLLFCGTGELFVSKKAMPYIREAIRRGLHVRILTNGMLVDDKVARELVELGVGAVLFSIDGHTKEIVESIRLGADYDRILANLRNLMRVRDEAGSGMIIGVQSGWFDEVKTRKDEILEFWKEFGIDTFSFFAEQVGWFQCIPMHEDKVMPVKTHACFNSLITPVLMTNGYVAPCTGNYQAEWSSLSSSWMKHISEAPFDEIIRYYRKMRTDPASPYRQRCAMCIGRLSTYVNSEYVSAYAEGYRFSERKSDKEAAFVKFSPQDEKTGFTLKKLWNRLLRR	not soluble
MGSDKIHHHHHHMNSGIYSALTGNVAAMKRLDVLSNNLANVNTPGFKKDRMTFESMLQTVGAQPRPGGGTDAPVFAETTFFTDYSPGSVKQTGNPFDLAIDGDGFFAVTTADGQRAYTRQGNFRLDSTGRLVTADGAQVAGGVVIAGGKVDINGKGEVLVDGSQVGRLEVVDFPKPYALQKLGGGLFVPADPQATPNPVTGEKVMQGAIEESNVNTVQEMVQLIETNRYFEMCSKVVKAYDDLTGKAANEIGKI	not soluble
